The labels stand for the following.
B1: HA-tagged RUNX1T1, wild type [human] / FLAG-tagged Sin3A [not stated] (parent complex)
chain 1: MISVKRNTWRALSLVIGDCRKKGNFEYCQDRTEKHSTMPDSPVDVKTQSRLTPPTMPPPPTTQGAPRTSSFTPTTLTNGTSHSPTALNGAPSPPNGFSNGPSSSSSSSLANQQLPPACGARQLSKLKRFLTTLQQFGNDISPEIGERVRTLVLGLVNSTLTIEEFHSKLQEATNFPLRPFVIPFLKANLPLLQRELLHCARLAKQNPAQYLAQHEQLLLDASTTSPVDSSELLLDVNENGKRRTPDRTKENGFDREPLHSEHPSKRPCTISPGQRYSPNNGLSYQPNGLPHPTPPPPQHYRLDDMAIAHHYRDSYRHPSHRDLRDRNRPMGLHGTRQEEMIDHRLTDREWAEEWKHLDHLLNCIMDMVEKTRRSLTVLRRCQEADREELNYWIRRYSDAEDLKKGGGSSSSHSRQQSPVNPDPVALDAHREFLHRPASGYVPEEIWKKAEEAVNEVKRQAMTELQKAVSEAERKAHDMITTERAKMERTVAEAKRQAAEDALAVINQQEDSSESCWNCGRKASETCSGCNTARYCGSFCQHKDWEKHHHICGQTLQAQQQGDTPAVSSSVTPNSGAGSPMDTPPAATPRSTTPGTPSTIETTPR
chain 2: MKRRLDDQESPVYAAQQRRIPGSTEAFPHQHRVLAPAPPVYEAVSETMQSATGIQYSVTPSYQVSAMPQSSGSHGPAIAAVHSSHHHPTAVQPHGGQVVQSHAHPAPPVAPVQGQQQFQRLKVEDALSYLDQVKLQFGSQPQVYNDFLDIMKEFKSQSIDTPGVISRVSQLFKGHPDLIMGFNTFLPPGYKIEVQTNDMVNVTTPGQVHQIPTHGIQPQPQPPPQHPSQPSAQSAPAPAQPAPQPPPAKVSKPSQLQAHTPASQQTPPLPPYASPRSPPVQPHTPVTISLGTAPSLQNNQPVEFNHAINYVNKIKNRFQGQPDIYKAFLEILHTYQKEQRNAKEAGGNYTPALTEQEVYAQVARLFKNQEDLLSEFGQFLPDANSSVLLSKTTAEKVDSVRNDHGGTVKKPQLNNKPQRPSQNGCQIRRHPTGTTPPVKKKPKLLNLKDSSMADASKHGGGTESLFFDKVRKALRSAEAYENFLRCLVIFNQEVISRAELVQLVSPFLGKFPELFNWFKNFLGYKESVHLETYPKERATEGIAMEIDYASCKRLGSSYRALPKSYQQPKCTGRTPLCKEVLNDTWVSFPSWSEDSTFVSSKKTQYEEHIYRCEDERFELDVVLETNLATIRVLEAIQKKLSRLSAEEQAKFRLDNTLGGTSEVIHRKALQRIYADKAADIIDGLRKNPSIAVPIVLKRLKMKEEEWREAQRGFNKVWREQNEKYYLKSLDHQGINFKQNDTKVLRSKSLLNEIESIYDERQEQATEENAGVPVGPHLSLAYEDKQILEDAAALIIHHVKRQTGIQKEDKYKIKQIMHHFIPDLLFAQRGDLSDVEEEEEEEMDVDEATGAVKKHNGVGGSPPKSKLLFSNTAAQKLRGMDEVYNLFYVNNNWYIFMRLHQILCLRLLRICSQAERQIEEENREREWEREVLGIKRDKSDSPAIQLRLKEPMDVDVEDYYPAFLDMVRSLLDGNIDSSQYEDSLREMFTIHAYIAFTMDKLIQSIVRQLQHIVSDEICVQVTDLYLAENNNGATGGQLNTQNSRSLLESTYQRKAEQLMSDENCFKLMFIQSQGQVQLTIELLDTEEENSDDPVEAERWSDYVERYMNSDTTSPELREHLAQKPVFLPRNLRRIRKCQRGREQQEKEGKEGNSKKTMENVDSLDKLECRFKLNSYKMVYVIKSEDYMYRRTALLRAHQSHERVSKRLHQRFQAWVDKWTKEHVPREMAAETSKWLMGEGLEGLVPCTTTCDTETLHFVSINKYRVKYGTVFKAP
B2: HA-tagged RUNX1T1, wild type [human] / FLAG-tagged GFI-1 [not stated] (parent complex)
chain 1: B1 chain 1
chain 2: not shown

One assay covers variants of B1. Briefly: co-immunoprecipitation (IP: HA) with densitometry quantification; HA-tagged RUNX1T1 and FLAG-tagged interactor co-expressed in HEK-293 cells; parent: 1; read off a plot.
chain 1 E163K: the ratio to parent is roughly 0.57.
chain 1 E146K: the ratio to parent was roughly 2.6.

Variants of B2 are the subject of another assay. Described as above.
chain 1 E163K: the ratio to parent was roughly 1.6.
Regarding chain 1 E146K, the ratio to parent is roughly 1.6.

The record behind these values is PMC11589140 (2024).
